The values that follow are results of earlier work, collected in paper PMC5982148.

Targets include CYP1B1 (Homo sapiens) (UniProt Q16678); CYP2C9 (Homo sapiens) (UniProt P11712); SMAD4 (Homo sapiens) (UniProt Q13485).
Common to all, as to assay: SPR
For data set [1], the target named is glyceraldehyde-3-phosphate dehydrogenase (Homo sapiens) (UniProt P04406).
Data set [2] addresses NADPH-adrenodoxin reductase (Homo sapiens) (UniProt P22570).
For data set [3], the target named is cytochrome b5 (Homo sapiens) (UniProt P00167).

UniProt P22570, sequence (P22570 33-491): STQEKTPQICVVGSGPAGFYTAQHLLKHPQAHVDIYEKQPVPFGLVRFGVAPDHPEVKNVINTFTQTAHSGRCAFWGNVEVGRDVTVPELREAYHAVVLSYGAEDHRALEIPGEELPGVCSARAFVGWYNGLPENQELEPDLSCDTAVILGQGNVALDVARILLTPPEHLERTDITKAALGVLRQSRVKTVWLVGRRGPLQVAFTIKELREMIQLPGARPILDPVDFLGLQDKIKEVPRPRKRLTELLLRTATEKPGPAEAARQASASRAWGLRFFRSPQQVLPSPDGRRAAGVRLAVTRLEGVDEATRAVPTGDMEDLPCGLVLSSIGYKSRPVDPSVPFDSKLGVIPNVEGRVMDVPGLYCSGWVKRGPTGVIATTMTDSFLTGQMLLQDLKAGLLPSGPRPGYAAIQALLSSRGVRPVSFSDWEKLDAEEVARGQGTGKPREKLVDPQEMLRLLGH
UniProt Q16678, sequence (Q16678 whole entry): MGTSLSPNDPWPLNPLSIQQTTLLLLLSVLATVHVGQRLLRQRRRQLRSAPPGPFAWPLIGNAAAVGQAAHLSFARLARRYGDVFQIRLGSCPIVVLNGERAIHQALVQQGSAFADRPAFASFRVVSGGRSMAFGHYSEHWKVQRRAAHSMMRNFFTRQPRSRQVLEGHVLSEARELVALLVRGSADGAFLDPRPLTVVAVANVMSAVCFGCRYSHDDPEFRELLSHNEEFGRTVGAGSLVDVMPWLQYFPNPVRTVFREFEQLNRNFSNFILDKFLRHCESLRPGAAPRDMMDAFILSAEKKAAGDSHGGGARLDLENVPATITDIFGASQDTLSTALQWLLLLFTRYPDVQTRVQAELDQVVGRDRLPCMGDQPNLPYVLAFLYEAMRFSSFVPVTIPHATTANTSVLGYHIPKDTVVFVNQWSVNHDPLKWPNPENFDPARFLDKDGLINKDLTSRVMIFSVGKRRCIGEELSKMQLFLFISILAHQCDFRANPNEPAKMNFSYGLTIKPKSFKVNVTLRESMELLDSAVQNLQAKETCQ
UniProt P11712, sequence (P11712 whole entry): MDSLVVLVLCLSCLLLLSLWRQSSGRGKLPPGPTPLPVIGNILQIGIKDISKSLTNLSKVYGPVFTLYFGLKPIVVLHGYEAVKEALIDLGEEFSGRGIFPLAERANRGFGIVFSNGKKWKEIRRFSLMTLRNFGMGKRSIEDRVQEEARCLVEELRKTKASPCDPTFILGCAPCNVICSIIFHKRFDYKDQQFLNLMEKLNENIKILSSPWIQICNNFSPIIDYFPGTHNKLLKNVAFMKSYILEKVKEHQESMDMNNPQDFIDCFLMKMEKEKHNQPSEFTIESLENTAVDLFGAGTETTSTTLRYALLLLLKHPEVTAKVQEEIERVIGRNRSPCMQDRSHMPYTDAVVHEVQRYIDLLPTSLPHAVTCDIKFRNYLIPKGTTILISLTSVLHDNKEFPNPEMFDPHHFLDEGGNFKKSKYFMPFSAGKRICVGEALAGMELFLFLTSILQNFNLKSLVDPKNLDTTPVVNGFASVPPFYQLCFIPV
UniProt P04406, sequence (P04406 2-335): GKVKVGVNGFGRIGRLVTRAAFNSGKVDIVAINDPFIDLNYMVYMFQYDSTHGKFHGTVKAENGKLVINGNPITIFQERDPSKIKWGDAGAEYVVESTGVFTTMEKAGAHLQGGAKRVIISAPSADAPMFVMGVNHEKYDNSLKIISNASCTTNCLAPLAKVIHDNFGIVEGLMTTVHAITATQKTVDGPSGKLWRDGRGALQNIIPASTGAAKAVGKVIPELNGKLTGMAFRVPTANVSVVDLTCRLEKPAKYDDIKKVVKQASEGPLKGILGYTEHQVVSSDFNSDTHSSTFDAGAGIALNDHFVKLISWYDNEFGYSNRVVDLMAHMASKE
UniProt Q13485, sequence (Q13485 whole entry): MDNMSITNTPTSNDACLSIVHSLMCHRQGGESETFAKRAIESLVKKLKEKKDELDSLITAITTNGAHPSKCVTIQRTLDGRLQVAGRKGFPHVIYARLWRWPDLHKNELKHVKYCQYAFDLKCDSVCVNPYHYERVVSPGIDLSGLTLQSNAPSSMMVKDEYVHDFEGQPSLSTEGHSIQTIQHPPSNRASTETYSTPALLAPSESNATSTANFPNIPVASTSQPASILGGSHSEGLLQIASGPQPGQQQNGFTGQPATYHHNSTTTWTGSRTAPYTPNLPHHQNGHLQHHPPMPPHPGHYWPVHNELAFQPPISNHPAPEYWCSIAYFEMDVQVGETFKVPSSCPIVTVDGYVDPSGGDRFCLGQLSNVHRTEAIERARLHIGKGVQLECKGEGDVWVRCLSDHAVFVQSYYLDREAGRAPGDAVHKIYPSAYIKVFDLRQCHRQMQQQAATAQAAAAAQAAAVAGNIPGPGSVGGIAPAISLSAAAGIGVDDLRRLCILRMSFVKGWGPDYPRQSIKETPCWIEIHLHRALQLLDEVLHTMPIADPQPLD

Broadly, the Kd is a measure of binding affinity in units of concentration. With cytochrome b5 (from UniProt P00167), the Kd was 70 nM with CYP1B1 (Homo sapiens), 1100 nM in the data set with CYP2C9 (Homo sapiens) and 100 nM in data set [1].

For ferrochelatase (from UniProt P22830), the Kd is 13000 nM in data set [2], 1600 nM with SMAD4 (Homo sapiens) and 1500 nM in data set [3].
